Test results as given in US6887468B1 (Board of Regents, The University of Texas System, priority 1999, dated 2005).

Columns and labels:
[1] = tested on: NCI-H358 NSCLC and HT29 colon adenocarcinoma xenografts and normal organs; assay: In vivo localization in mice bearing human tumor xenografts (immunohistochemistry 24 h after i.v. injection); set-up: species or system mouse
Procedure: Tumors were grown subcutaneously in immunocompromised mice (NCI-H358 NSCLC in nu/nu mice and HT29 colon adenocarcinoma in SCID mice) until the tumor volume was approximately 1 cm^3. 100 μg of unlabeled antibody for studies using SCID mice, or 100 μg of biotinylated antibody for studies using nude mice, was injected intravenously via a tail vein. Twenty four hours later, the mice were anesthetized, perfused with PBS, and tumor and organs including heart, lungs, liver, kidneys, intestines and spleen were collected and snap frozen in liquid nitrogen.
The tumor and organs from each mouse were sectioned on a cryostat and stained for antibody immunohistochemically as above, with the exception that sections from the nude mice were developed using peroxidase labeled streptavidin-biotin complex (Dako, Carpinteria, Calif.) and the sections from the SCID mice were developed using two peroxidase-conjugated secondary antibodies, a goat anti-mouse IgG+IgM followed by a rabbit anti-goat IgG.
100 μg of GV39M and 3E7 or isotype-matched control IgG were injected into SCID mice bearing HT29 human colonic adenocarcinomas. Twenty-four hours later, the mice were sacrificed, exsanguinated and the tumors and tissues were removed.

VEGFR2 = assay: VEGF-induced phosphorylation of VEGFR2 in PAE/KDR cells (immunoprecipitation, western blot); format: cell-based, porcine aortic endothelial cells transfected with VEGFR2; details: antibody 100 nM
Procedure: PAE/KDR, PAE/FLT, and bEND.3 cells were grown to 80-90% confluency in 100 mm tissue dishes in media containing 5% serum. The cells were then serum starved for 24 hours in media containing 0.1% serum. After pretreatment with 100 […] in PBS for 30 min, the cells were incubated with 5 nM (200 ng/ml) VEGF165, 5 nM (100 ng/ml) bFGF (R&D Systems, Minneapolis, Minn.), or A673 tumor conditioned media in the presence or absence of control or test antibodies for additional 15 min.
The cells were then washed with ice-cold PBS containing 10 mM EDTA, 2 mM sodium fluoride, and 2 mM sodium orthovanadate and lysed in lysis buffer (50 mM Tris, 150 mM NaCl, 1% Nonidet P40, 0.25% sodium deoxycholate, 0.1% CHAPS, 5 mM EDTA, 1.5 mM MgCl2, 2 mM sodium fluoride, 2 mM sodium orthovanadate, 10% glycerol and protease inhibitors (Complete Protease Inhibitor Cocktail tablets, Boehringer Mannheim)). The lysates were clarified by centrifugation and resulting supematant used for immunoprecipitation.
The reactions using the chicken anti-FLT-1 antibody were subsequently incubated with a bridging goat anti-chicken antibody (Kirkegaard and Perry Laboratories, Inc.) for 1 h at 4° C. […]

HT1080 fibrosarcoma = assay: Treatment of established HT1080 fibrosarcoma xenografts; format: in vivo, nu/nu mice; details: 100 μg every two days
Procedure: FIG. 5A and FIG. 5B. […] Treatments (T) were 100 μg of the IgG given i.p., except for the initial treatment that consisted of 500 μg of the IgG given i.v. Mean tumor volume along with the SEM is shown. At the end of the study (day 116), the mice were sacrificed and the tumors dissected out and weighed. […] The mice were treated every other day as indicated (T). […] Mean tumor volume along with the SE is shown.
Male nu/nu mice bearing subcutaneous NCI-H358 tumors or HT1080 fibrosarcoma 200-400 mm^3 in size were injected i.p. with test or control antibodies. The NCI-H358 bearing mice were treated with 100 μg of antibodies per injection three times a week during the first week and twice a week during the second and third week. The mice were then switched to 50 μg per injection every five days. The HT1080 bearing mice were treated with 100 μg of the indicated antibody or saline every other day throughout the duration of the study. In both studies, mice were sacrificed when their tumors reached 2500 mm^3 in size or earlier if tumors began to ulcerate.

2C3: anti-VEGF monoclonal IgG2a,k from hybridoma ATCC PTA 1595; blocks VEGF binding to VEGFR2 but not VEGFR1
Immunohistochemical Reactivity, Tumor ([1]; 24 hours after i.v. antibody, 3E7 and GV39M bound tumor vascular endothelium, 2C3 tumor stroma): 3+
In vivo localization in H358 human NSCLC tumor ([1]; biotinylated antibody, i.v., nu/nu mice): intense staining of connective tissue surrounding the vasculature
In vivo localization in HT29 human tumor model ([1]; mouse, in vivo): localized strongly to the connective tissue
In vivo normal mouse tissue localization ([1]; mouse, in vivo): None
Blocking of VEGF-induced phosphorylation of VEGFR2 (VEGFR2): block VEGF-induced phosphorylation of VEGFR2 in PAE/KDR cells
Effect on growth of established HT1080 tumors (HT1080 fibrosarcoma): arrested the growth of the tumors
